The values that follow come from patent US20070281326A1 (QUARK PHARMACEUTICALS, published 2007).

Test [1] concerns the target T1, TSC2 (human, UniProt P49815 1-1807, limits assumed).
T1 construct: TSC2 without a stated tag, endogenous or expressed from transfected cDNA in 293T cell extracts; also called tuberin; endogenous TSC2
As to the kind of experiment: co-IP from transfected 293T extract, immunoblot (FIG. 11).

The target of another test is T2, HA-tagged TSC2 (human, UniProt P49815 1-1807).
T2 construct: Expressed in 293T cells; used as cell extract; also called HA-TSC2; full length HA-tagged TSC2; not shown: HA tag
As to the kind of experiment: co-IP with anti-FLAG from CoCl2-treated 293T cells (FIG. 25).

Test [2] has as its target T3, TSC2 “N” fragment (a.a. 2-935), HA-tagged (human, UniProt P49815 2-935).
T3 construct: also called HA-“N” fragment of TSC2; not shown: HA tag
Description: co-IP with anti-FLAG from 293T extract, anti-HA blot (FIG. 17).

Test [3] addresses T1, TSC2. Description: summary of Example 6.
Test [4] deals with T4, HA-SV5-full length hRTP801 (human, UniProt Q9NX09 1-232).
T4 construct: Expressed in 293T HEK cells; also called HA-full length hRTP801; HA-SV5-hRTP801; not shown: HA tag; SV5 tag
T4 sequence: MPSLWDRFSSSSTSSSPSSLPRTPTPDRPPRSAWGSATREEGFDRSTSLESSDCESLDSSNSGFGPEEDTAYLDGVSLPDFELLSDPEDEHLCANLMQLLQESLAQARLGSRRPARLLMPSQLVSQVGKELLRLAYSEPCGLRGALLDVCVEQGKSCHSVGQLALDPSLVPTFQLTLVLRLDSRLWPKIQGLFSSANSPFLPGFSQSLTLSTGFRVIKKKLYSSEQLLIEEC
As to the kind of experiment: co-IP with M2 anti-FLAG resin from CoCl2-treated 293T HEK extract (FIG. 21).

Test [5] concerns the target T1, TSC2. As to the kind of experiment: pull-down from cell extract with 6XHis baits (FIG. 13).

T1 sequence (P49815 other isoform, or with tags, fused parts or gaps limits assumed): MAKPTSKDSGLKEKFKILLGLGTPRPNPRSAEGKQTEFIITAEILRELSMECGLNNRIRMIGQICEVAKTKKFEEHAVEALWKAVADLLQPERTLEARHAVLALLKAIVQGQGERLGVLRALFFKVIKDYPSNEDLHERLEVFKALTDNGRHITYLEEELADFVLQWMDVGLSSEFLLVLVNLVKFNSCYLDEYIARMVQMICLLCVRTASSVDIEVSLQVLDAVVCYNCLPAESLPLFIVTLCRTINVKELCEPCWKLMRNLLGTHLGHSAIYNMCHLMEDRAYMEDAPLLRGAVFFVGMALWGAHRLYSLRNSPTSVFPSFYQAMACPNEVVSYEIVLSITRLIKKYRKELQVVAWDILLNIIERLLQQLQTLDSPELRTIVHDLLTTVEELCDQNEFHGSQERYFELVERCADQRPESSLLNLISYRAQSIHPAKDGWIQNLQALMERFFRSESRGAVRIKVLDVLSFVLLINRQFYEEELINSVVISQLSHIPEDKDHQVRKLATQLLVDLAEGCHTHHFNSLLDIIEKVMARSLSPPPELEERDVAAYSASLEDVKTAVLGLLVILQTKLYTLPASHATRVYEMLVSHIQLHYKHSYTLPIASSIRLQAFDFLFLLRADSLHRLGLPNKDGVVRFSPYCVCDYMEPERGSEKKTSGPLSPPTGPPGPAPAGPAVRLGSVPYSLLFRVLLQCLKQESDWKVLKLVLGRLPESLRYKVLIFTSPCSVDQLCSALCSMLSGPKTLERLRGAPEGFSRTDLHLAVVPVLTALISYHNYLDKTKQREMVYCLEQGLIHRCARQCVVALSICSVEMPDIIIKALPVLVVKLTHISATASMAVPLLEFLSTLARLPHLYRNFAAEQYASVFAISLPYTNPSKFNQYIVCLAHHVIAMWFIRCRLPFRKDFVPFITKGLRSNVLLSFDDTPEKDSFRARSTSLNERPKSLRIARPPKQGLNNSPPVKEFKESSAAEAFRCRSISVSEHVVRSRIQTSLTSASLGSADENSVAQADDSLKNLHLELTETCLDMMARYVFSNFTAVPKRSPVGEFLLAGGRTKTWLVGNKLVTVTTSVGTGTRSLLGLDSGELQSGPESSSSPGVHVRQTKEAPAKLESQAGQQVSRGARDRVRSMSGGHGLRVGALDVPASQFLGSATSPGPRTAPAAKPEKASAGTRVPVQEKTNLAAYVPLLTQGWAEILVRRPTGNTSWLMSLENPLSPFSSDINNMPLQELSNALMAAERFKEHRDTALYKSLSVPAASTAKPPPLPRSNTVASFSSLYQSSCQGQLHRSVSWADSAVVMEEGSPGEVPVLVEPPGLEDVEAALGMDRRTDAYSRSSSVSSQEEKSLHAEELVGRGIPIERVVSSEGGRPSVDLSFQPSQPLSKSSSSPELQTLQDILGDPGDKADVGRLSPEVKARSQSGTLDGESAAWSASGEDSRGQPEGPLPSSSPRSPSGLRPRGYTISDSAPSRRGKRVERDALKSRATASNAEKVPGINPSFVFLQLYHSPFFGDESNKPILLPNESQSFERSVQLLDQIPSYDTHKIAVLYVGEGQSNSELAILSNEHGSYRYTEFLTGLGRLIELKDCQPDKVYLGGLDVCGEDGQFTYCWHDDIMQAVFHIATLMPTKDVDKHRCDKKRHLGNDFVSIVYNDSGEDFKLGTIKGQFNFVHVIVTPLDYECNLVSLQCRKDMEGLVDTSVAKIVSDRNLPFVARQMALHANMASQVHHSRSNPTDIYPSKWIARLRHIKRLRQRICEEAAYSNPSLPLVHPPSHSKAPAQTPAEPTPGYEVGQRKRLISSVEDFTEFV
T3 sequence (P49815 other isoform, or with tags, fused parts or gaps): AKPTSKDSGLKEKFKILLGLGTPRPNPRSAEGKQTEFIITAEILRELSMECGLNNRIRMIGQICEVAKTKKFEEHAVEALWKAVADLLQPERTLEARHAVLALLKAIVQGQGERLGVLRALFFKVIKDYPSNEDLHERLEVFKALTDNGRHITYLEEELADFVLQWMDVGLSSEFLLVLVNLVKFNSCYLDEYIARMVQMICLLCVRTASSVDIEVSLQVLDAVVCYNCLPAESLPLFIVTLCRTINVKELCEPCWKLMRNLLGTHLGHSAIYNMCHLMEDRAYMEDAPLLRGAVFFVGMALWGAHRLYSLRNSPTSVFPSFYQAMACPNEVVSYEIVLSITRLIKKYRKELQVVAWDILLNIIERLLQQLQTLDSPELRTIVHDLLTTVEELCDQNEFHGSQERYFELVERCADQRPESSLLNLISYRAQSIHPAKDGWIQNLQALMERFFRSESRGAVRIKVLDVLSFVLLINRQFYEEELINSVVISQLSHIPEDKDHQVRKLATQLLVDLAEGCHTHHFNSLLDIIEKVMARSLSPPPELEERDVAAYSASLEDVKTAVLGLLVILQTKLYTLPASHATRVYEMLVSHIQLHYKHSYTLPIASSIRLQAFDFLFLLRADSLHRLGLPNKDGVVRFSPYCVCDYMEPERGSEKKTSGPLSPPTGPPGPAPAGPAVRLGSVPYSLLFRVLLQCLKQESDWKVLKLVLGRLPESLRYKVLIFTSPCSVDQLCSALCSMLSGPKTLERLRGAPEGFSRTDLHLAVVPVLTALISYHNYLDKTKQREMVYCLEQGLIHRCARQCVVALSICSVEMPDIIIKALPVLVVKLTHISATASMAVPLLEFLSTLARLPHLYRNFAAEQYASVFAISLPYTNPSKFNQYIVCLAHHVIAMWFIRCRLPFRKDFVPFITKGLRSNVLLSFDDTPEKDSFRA
T2 sequence (P49815 other isoform, or with tags, fused parts or gaps limits assumed): as the sequence (P49815 other isoform, or with tags, fused parts or gaps limits assumed) above
Description for HA-tagged TSC2: Forty-eight hours after transfection, the cells were treated with CoCl₂ for overnight.

B1: FLAG-hRTP801 (other)
chain: MPSLWDRFSSSSTSSSPSSLPRTPTPDRPPRSAWGSATREEGFDRSTSLESSDCESLDSSNSGFGPEEDTAYLDGVSLPDFELLSDPEDEHLCANLMQLLQESLAQARLGSRRPARLLMPSQLVSQVGKELLRLAYSEPCGLRGALLDVCVEQGKSCHSVGQLALDPSLVPTFQLTLVLRLDSRLWPKIQGLFSSANSPFLPGFSQSLTLSTGFRVIKKKLYSSEQLLIEEC
notes: Expressed by transient transfection in 293T cells; full length hRTP801 with FLAG tag; also called FLAG-full length hRTP801; FLAG-RTP801; not shown: FLAG tag
As to B1, the binding result (with TSC2 [1]; in the test with HA-tagged TSC2; in test [2]) was “binds” in each case.

B2: hRTP801 (other)
chain: MPSLWDRFSSSSTSSSPSSLPRTPTPDRPPRSAWGSATREEGFDRSTSLESSDCESLDSSNSGFGPEEDTAYLDGVSLPDFELLSDPEDEHLCANLMQLLQESLAQARLGSRRPARLLMPSQLVSQVGKELLRLAYSEPCGLRGALLDVCVEQGKSCHSVGQLALDPSLVPTFQLTLVLRLDSRLWPKIQGLFSSANSPFLPGFSQSLTLSTGFRVIKKKLYSSEQLLIEEC
notes: also called endogenous hRTP801; exogenous hRTP801
With B2, the binding result with TSC2 [3] is listed as “binds”.

B3: FLAG-(N-C2)hRTP801 (other)
chain: MPSLWDRFSSSSTSSSPSSLPRTPTPDRPPRSAWGSATREEGFDRSTSLESSDCESLDSSNSGFGPEEDTAYLDGVSLPDFELLSDPEDEHLCANLMQLLQESLAQARLGSRRPARLLMPSQLVSQVGKELLRLAYSEPCGLRGALLDVCVEQGKSCHSVGQLALDPSLVPTFQLTLVLRLDSRLWPKIQGLFSS
notes: also called hRTP801 N-C2 fragment; hRTP801 N-C2 mutant; not shown: FLAG tag
Take B3: the binding result in test [4] is “binds”.

B4: 6XHis hRTP801 N-fragment (other)
chain: MPSLWDRFSSSSTSSSPSSLPRTPTPDRPPRSAWGSATREEGFDRSTSLESSDCESLDSSNSGFGPEEDTAYLDGVSLPDFELLSDPE
notes: not shown: 6XHis tag
Regarding B4, in the test with TSC2 [5], the binding result is “no binding”.
